Reference: paper PMC11813886
One block for each substance: values may come before it.

How the values were obtained:
[1] = biological target: FHR-1_(1-3)::FHR-B4-5 hybrid protein (human | mouse); assay: AUC; sedimentation velocity, 48000 rpm, protein in PBS pH 7; c(s) distributions with SEDFIT; dimer to monomers
[2] = biological target: FHR-B1-3::FHR-1_(4-5) hybrid protein (mouse | human); assay: as above
FHR-B_(Del.1) (mouse) = assay: as above
FHR-B_(Dup.1-3) (mouse) = assay: as above
[3] = biological target: FHR-B_(T161A,I166V) (mouse); assay: as above
FHR-B_(Y162H) (mouse) = assay: as above
[4] = biological target: recombinant form of the native mouse FHR-B protein (rFHR-B) (mouse); assay: as above
[5] = biological target: recombinant form of the native mouse FHR-B protein (rFHR-B) (mouse); assay: AUC; sedimentation velocity after exposure to pH 2.5 or pH 10.5 and dialysis back to physiological conditions

Substance: FHR-B1-3::FHR-1_(4-5) hybrid protein
- stoichiometry N [2]: 2

Substance: FHR-B_(Del.1) (domain or fragment)
- stoichiometry N (FHR-B_(Del.1) (mouse)): 2

Substance: FHR-B_(T161A,I166V) (natural protein)
- stoichiometry N [3]: 2

Substance: FHR-B_(Y162H) (natural protein)
- stoichiometry N (FHR-B_(Y162H) (mouse)): 2

Substance: recombinant form of the native mouse FHR-B protein (rFHR-B) (natural protein)
- stoichiometry N [4]: 2
- stoichiometry N [5]: 2

Other lines, results leading:

- stoichiometry N [1]: 2
Substance: FHR-1_(1-3)::FHR-B4-5 hybrid protein

- stoichiometry N (FHR-B_(Dup.1-3) (mouse)): 2
Substance: FHR-B_(Dup.1-3)
